According to IntAct's records for PubMed 31515488:

B1: Cell division cycle 7-related protein kinase (Homo sapiens), O00311 (parent)
chain: MEASLGIQMDEPMAFSPQRDRFQAEGSLKKNEQNFKLAGVKKDIEKLYEAVPQLSNVFKIEDKIGEGTFSSVYLATAQLQVGPEEKIALKHLIPTSHPIRIAAELQCLTVAGGQDNVMGVKYCFRKNDHVVIAMPYLEHESFLDILNSLSFQEVREYMLNLFKALKRIHQFGIVHRDVKPSNFLYNRRLKKYALVDFGLAQGTHDTKIELLKFVQSEAQQERCSQNKSHIITGNKIPLSGPVPKELDQQSTTKASVKRPYTNAQIQIKQGKDGKEGSVGLSVQRSVFGERNFNIHSSISHESPAVKLMKQSKTVDVLSRKLATKKKAISTKVMNSAVMRKTASSCPASLTCDCYATDKVCSICLSRRQQVAPRAGTPGFRAPEVLTKCPNQTTAIDMWSAGVIFLSLLSGRYPFYKASDDLTALAQIMTIRGSRETIQAAKTFGKSILCSKEVPAQDLRKLCERLRGMDSSTPKLTSDIQGHASHQPAISEKTDHKASCLVQTPPGQYSGNSFKKGDSNSCEHCFDEYNTNLEGWNEVPDEAYDLLDKLLDLNPASRITAEEALLHPFFKDMSL
partner: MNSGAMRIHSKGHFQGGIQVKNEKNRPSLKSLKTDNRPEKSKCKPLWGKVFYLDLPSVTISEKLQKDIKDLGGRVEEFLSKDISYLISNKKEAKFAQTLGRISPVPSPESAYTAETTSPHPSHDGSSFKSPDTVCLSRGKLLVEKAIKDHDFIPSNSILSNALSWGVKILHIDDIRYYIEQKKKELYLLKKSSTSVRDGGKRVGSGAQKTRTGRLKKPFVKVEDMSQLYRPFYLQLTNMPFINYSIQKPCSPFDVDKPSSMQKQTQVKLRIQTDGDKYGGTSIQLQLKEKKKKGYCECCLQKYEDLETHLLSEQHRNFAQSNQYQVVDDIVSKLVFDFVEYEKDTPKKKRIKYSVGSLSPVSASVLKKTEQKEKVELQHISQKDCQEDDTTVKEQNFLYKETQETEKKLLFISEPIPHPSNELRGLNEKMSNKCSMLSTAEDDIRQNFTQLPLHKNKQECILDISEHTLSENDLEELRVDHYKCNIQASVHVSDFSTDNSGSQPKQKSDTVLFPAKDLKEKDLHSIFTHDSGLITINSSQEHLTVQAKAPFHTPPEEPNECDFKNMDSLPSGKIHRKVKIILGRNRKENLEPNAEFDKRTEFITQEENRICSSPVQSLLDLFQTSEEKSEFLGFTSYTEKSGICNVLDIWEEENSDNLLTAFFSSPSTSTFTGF
B2: Keratin, type I cytoskeletal 18 (Homo sapiens), P05783 (parent)
chain: MSFTTRSTFSTNYRSLGSVQAPSYGARPVSSAASVYAGAGGSGSRISVSRSTSFRGGMGSGGLATGIAGGLAGMGGIQNEKETMQSLNDRLASYLDRVRSLETENRRLESKIREHLEKKGPQVRDWSHYFKIIEDLRAQIFANTVDNARIVLQIDNARLAADDFRVKYETELAMRQSVENDIHGLRKVIDDTNITRLQLETEIEALKEELLFMKKNHEEEVKGLQAQIASSGLTVEVDAPKSQDLAKIMADIRAQYDELARKNREELDKYWSQQIEESTTVVTTQSAEVGAAETTLTELRRTVQSLEIDLDSMRNLKASLENSLREVEARYALQMEQLNGILLHLESELAQTRAEGQRQAQEYEALLNIKVKLEAEIATYRRLLEDGEDFNLGDALDSSNSMQTIQKTTTRRIVDGKVVSETNDTKVLRH
partner: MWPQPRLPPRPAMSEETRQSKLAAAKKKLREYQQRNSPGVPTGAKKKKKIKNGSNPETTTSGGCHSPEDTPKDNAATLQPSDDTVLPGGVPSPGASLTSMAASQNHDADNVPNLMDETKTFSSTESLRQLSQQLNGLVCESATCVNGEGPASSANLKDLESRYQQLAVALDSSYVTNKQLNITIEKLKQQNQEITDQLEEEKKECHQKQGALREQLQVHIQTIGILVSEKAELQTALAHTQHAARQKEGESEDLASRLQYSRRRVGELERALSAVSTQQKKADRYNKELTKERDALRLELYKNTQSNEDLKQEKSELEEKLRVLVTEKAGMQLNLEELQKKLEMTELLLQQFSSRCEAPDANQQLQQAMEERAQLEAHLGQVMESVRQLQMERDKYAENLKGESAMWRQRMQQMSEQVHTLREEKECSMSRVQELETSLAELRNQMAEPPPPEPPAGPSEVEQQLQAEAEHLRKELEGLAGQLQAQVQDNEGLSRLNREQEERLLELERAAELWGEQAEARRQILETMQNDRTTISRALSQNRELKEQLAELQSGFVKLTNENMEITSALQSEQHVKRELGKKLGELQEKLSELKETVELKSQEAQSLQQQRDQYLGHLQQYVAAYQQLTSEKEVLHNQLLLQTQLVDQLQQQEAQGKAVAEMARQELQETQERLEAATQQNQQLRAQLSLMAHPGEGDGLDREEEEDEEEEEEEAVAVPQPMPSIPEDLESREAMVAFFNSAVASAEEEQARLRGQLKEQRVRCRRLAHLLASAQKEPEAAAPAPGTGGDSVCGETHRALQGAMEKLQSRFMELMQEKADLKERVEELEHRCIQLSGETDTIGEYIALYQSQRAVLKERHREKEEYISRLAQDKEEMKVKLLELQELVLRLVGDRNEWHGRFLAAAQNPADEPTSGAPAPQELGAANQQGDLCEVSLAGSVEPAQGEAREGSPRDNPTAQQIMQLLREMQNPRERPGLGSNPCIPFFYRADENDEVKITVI
B3: Golgin-45 (Homo sapiens), Q9H2G9 (parent)
chain: MTTKNLETKVTVTSSPIRGAGDGMETEEPPKSVEVTSGVQSRKHHSLQSPWKKAVPSESPGVLQLGKMLTEKAMEVKAVRILVPKAAITHDIPNKNTKVKSLGHHKGEFLGQSEGVIEPNKELSEVKNVLEKLKNSERRLLQDKEGLSNQLRVQTEVNRELKKLLVASVGDDLQYHFERLAREKNQLILENEALGRNTAQLSEQLERMSIQCDVWRSKFLASRVMADELTNSRAALQRQNRDAHGAIQDLLSEREQFRQEMIATQKLLEELLVSLQWGREQTYSPSVQPHSTAELALTNHKLAKAVNSHLLGNVGINNQKKIPSTVEFCSTPAEKMAETVLRILDPVTCKESSPDNPFFESSPTTLLATKKNIGRFHPYTRYENITFNCCNHCRGELIAL
B4: Pachytene checkpoint protein 2 homolog (Homo sapiens), Q15645 (parent)
chain: MDEAVGDLKQALPCVAESPTVHVEVHQRGSSTAKKEDINLSVRKLLNRHNIVFGDYTWTEFDEPFLTRNVQSVSIIDTELKVKDSQPIDLSACTVALHIFQLNEDGPSSENLEEETENIIAANHWVLPAAEFHGLWDSLVYDVEVKSHLLDYVMTTLLFSDKNVNSNLITWNRVVLLHGPPGTGKTSLCKALAQKLTIRLSSRYRYGQLIEINSHSLFSKWFSESGKLVTKMFQKIQDLIDDKDALVFVLIDEVESLTAARNACRAGTEPSDAIRVVNAVLTQIDQIKRHSNVVILTTSNITEKIDVAFVDRADIKQYIGPPSAAAIFKIYLSCLEELMKCQIIYPRQQLLTLRELEMIGFIENNVSKLSLLLNDISRKSEGLSGRVLRKLPFLAHALYVQAPTVTIEGFLQALSLAVDKQFEERKKLAAYI
partner: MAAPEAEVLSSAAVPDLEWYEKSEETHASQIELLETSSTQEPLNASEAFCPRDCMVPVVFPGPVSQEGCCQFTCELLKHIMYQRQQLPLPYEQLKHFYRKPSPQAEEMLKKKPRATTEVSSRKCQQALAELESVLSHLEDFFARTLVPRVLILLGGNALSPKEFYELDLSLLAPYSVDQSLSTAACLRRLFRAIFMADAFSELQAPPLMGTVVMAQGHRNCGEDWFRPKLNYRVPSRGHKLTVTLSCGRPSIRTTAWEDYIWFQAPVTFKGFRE
B5: MTRF1L release factor glutamine methyltransferase (Homo sapiens), Q9Y5R4 (parent)
chain: MELWGRMLWALLSGPGRRGSTRGWAFSSWQPQPPLAGLSSAIELVSHWTGVFEKRGIPEARESSEYIVAHVLGAKTFQSLRPALWTQPLTSQQLQCIRELSSRRLQRMPVQYILGEWDFQGLSLRMVPPVFIPRPETEELVEWVLEEVAQRSHAVGSPGSPLILEVGCGSGAISLSLLSQLPQSRVIAVDKREAAISLTHENAQRLRLQDRIWIIHLDMTSERSWTHLPWGPMDLIVSNPPYVFHQDMEQLAPEIRSYEDPAALDGGEEGMDIITHILALAPRLLKDSGSIFLEVDPRHPELVSSWLQSRPDLYLNLVAVRRDFCGRPRFLHIRRSGP
partner: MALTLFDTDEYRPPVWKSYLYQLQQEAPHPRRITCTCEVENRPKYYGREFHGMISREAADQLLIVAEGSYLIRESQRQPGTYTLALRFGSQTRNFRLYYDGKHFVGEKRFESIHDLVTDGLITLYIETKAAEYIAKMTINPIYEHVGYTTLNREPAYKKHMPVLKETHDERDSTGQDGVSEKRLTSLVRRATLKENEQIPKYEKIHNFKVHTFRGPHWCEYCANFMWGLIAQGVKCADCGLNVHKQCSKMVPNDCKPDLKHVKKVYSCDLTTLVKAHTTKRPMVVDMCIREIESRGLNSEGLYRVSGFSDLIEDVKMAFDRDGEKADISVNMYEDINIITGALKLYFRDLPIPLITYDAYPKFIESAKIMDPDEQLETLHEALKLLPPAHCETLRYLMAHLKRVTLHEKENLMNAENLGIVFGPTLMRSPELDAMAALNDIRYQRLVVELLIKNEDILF

Variants of: B1
Details: with dbf4a_human DBF4, Q9UBU7

Q: For K416T, which “effect of a mutation on the interaction” value is on record?
A: The value was “with no effect”.

Q: For I99L, which “effect of a mutation on the interaction” value is on record?
A: Its value is “with no effect”.

Q: For Q456H, which “effect of a mutation on the interaction” value is on record?
A: The value was “with no effect”.

Q: With Q106R as the variant, how does the “effect of a mutation on the interaction” value read?
A: The value was “with no effect”.

Variants of: B2
Details: with goga2_human GOLGA2, Q08379

Q: Which “effect of a mutation on the interaction” value does the source give for R158H here?
A: The value was “with no effect”.

Q: How did the “effect of a mutation on the interaction” value turn out when S230T was run?
A: Its value is “with no effect”.

Variants of: B3
Details: with aakb2_human PRKAB2, O43741
Sequence of aakb2_human PRKAB2, O43741 (O43741 whole entry): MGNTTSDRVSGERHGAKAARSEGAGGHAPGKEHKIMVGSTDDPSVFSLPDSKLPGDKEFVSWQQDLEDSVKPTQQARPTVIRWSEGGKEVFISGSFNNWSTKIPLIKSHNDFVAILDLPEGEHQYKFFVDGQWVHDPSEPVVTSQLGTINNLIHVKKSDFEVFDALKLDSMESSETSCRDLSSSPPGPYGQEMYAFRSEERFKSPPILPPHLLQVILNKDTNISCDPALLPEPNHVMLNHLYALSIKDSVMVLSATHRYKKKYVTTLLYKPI

Q: Which “effect of a mutation on the interaction” value does the source give for Q40R here?
A: The value was “with no effect”.

Q: H45R was tested. Which “effect of a mutation on the interaction” value did it give?
A: Its value is “with no effect”.

Variants of: B3
Details: with rab2a_human RAB2A

Q: Which “effect of a mutation on the interaction” value does the source give for Q40R here?
A: Its value is “with no effect”.

Q: H45R was tested. Which “effect of a mutation on the interaction” value did it give?
A: The value was “with no effect”.

Variants of: B3
Details: with zbt24_human ZBTB24, O43167
Sequence of zbt24_human ZBTB24, O43167 (O43167 whole entry): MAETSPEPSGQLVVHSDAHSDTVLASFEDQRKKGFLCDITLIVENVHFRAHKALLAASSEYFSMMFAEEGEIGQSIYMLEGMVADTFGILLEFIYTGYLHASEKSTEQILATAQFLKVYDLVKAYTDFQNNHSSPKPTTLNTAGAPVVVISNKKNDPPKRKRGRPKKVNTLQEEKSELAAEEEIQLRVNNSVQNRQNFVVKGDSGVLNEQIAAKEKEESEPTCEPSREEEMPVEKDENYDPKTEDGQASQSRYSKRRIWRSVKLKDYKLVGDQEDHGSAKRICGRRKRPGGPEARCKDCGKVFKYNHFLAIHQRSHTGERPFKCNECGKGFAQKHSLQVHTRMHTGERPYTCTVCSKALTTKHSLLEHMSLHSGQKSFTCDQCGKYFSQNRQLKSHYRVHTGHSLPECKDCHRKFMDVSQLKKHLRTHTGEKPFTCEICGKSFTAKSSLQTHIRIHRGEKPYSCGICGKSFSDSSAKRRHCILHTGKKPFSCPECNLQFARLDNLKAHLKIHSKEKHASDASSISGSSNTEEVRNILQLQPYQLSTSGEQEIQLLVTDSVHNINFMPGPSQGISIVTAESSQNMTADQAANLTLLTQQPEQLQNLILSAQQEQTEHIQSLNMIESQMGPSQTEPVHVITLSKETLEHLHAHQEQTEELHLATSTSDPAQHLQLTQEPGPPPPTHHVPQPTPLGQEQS

Q: With Q40R as the variant, how does the “effect of a mutation on the interaction” value read?
A: Its value is “with no effect”.

Q: Which “effect of a mutation on the interaction” value does the source give for H45R here?
A: Its value is “with no effect”.

Variants of: B4
Details: with md2bp_human MAD2L1BP

Q: How did the “effect of a mutation on the interaction” value turn out when G409E was run?
A: The value was “with no effect”.

Variants of: B5
Details: with chin_human CHN1, P15882

Q: With H200Q as the variant, how does the “effect of a mutation on the interaction” value read?
A: The value was “disrupting interaction strength”.
